Data from US20230242645A1 (WUXI BIOLOGICS SHANGHAI, published 2023).
One block for each binder: values may come before it.

What was measured:
[1] = target: T1, human PD-L1 extracellular domain, mouse Fc (PD-L1.ECD.mFc, W3153-hPro1.ECD.mFc) (human, UniProt Q9NZQ7 19-238); assay: dual binding ELISA: plate coated with human VEGF, antibody titrated, then biotinylated PD-L1.ECD.mFc at 0.5 ug/ml
T1 construct: extracellular domain; also called WBP315-hPro1.ECD.mFc; antigen-2; not shown: mouse Fc tag at the C-terminus

[2] = target: T2, cynomolgus monkey PD-L1 on 293F cells (WBP315.293F.cPro1.2A) (cynomolgus monkey, UniProt G7PSE7 19-290); assay: FACS on cynomolgus PD-L1 expressing 293F cells, FITC anti-human IgG
T2 construct: also called cynomolgus PD-L1; cyno PD-L1
Procedure: (§1) Engineered cynomolgus monkey PD-L1 expressing cells (WBP315.293F.cPro1.2A) were seeded at 1×10⁵ cells/well in U-bottom 96-well plates. […] UIgG1 was added to the cells. Plates were incubated at 4° C. for 1 hour. After wash, FITC-labeled goat anti-human IgG (Jackson ImmunoResearch, 109-095-008) was added to each well and the plates were incubated at 4° C. for 1 hour. The binding of the antibodies onto the cells was tested by flow cytometry and the mean fluorescence intensity (MFI) was analyzed by FlowJo.

[3] = target: T3, mouse PD-L1 on 293F cells (WBP315.293F.mPro1.C1) (mouse, UniProt Q9EP73 19-290); assay: FACS on mouse PD-L1 expressing 293F cells, FITC anti-human IgG
T3 construct: whole, on cells; also called engineered mouse PD-L1 expressing cells
Procedure: Engineered mouse PD-L1 expressing cells (WBP315.293F.mPro1.C1) were seeded at 1×10⁵ cells/well in U-bottom 96-well plates. Serial dilutions of the different antibodies were added to the cells. Plates were incubated at 4° C. for 1 hour. After wash, FITC-labeled goat anti-human IgG (Jackson ImmunoResearch, 109-095-008) was added to each well and the plates were incubated at 4° C. for 1 hour. […] UIgG1 onto the cells was tested by flow cytometry and the mean fluorescence intensity (MFI) was analyzed by FlowJo.

[4] = target: T4, human PD-L1 extracellular domain, his tag (W315-hPro1.ECD.his) (human, UniProt Q9NZQ7 19-238); assay: SPR (Biacore T200), antibody captured on anti-human Fc, antigen as analyte, 25 °C
T4 construct: extracellular domain; Analyte in SPR; also called W315-hPro1.ECD.his (PD-L1); ECD of PD-L1; not shown: C-terminal his tag (6xhis)
Procedure: Biacore T200, Series S Sensor Chip CM5, Amine Coupling Kit, and 10×HBS-EP were purchased from GE Healthcare. The antibody was captured onto the anti-human Fc IgG (Jackson, 109-005-098) surface immobilized on CM5-biosensor chip (GE Healthcare Inc.). The assay was performed at 25° C. with HBS-EP+ buffer (GE Healthcare Inc.) as running and dilution buffer. Serially diluted PD-L1 antigen or VEGF antigen (W315-hPro1.ECD.his or W325-hPro1.his) and running buffer were injected for an association phase and followed dissociation phase detection. Regeneration of the chip surface was reached by an injection of 10 mM Glycine, pH 1.5.
The on-rate constant (ka) and off-rate constant (kd) were also measured in the mean time. Final data of each interaction was deducted from reference channel and buffer channel data.

[5] = target: T5, human PD-L1 on CHO-K1 cells (WBP315.CHO-K1.hPro1.C11) (human, UniProt Q9NZQ7 19-290); assay: FACS competition on human PD-L1 expressing CHO-K1 cells: antibody premixed with mouse Fc tagged human PD-1 at 5 ug/ml, PE anti-mouse IgG; blocked ligand human PD-1
T5 construct: whole, on cells; also called engineered human PD-L1 expressing cells
Procedure: (§2) Human PD-L1 expressing CHO-K1 cells (WBP315.CHO-K1.hPro1.C11) were seeded at 1×10⁵ cells/well in 96-well U-bottom plates. […] After washing, PE-labeled anti-mouse IgG was added and incubated with cells at 4° C. for 45 minutes. Cells were washed twice and MFI of the cells was measured by a flow cytometer and analyzed by FlowJo.

[6] = target: T6, mouse VEGF (WBP325-mPro1, Sino Biological, 50159-MNAB) (mouse, UniProt Q00731-2 27-190); assay: ELISA, plate coated with mouse VEGF, detection with anti-human IgG Fc-HRP
T6 construct: Bought protein
T6 sequence (looked up): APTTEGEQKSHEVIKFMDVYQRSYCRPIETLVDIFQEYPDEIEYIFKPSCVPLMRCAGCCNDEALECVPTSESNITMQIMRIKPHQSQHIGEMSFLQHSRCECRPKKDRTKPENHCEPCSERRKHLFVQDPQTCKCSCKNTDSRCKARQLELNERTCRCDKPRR

[7] = target: T5, human PD-L1 on CHO-K1 cells …; assay: FACS on human PD-L1 expressing CHO-K1 cells, FITC anti-human IgG
Procedure: as §1, with “human” for “cynomolgus monkey”, “(WBP315.CHO-K1.hPro1.C11)” for “(WBP315.293F.cPro1.2A)”

[8] = target: T3, mouse PD-L1 on 293F cells …; assay: FACS competition on mouse PD-L1 expressing cells: antibody premixed with mouse Fc tagged murine PD-1 at 5 ug/ml, PE anti-mouse IgG; blocked ligand mouse PD-1
Procedure: as §2, with “Mouse” for “Human”, “(WBP315.293F.mPro1.C1)” for “(WBP315.CHO-K1.hPro1.C11)”, “1 hour.” for “45 minutes.”

T4 sequence (Q9NZQ7 19-238): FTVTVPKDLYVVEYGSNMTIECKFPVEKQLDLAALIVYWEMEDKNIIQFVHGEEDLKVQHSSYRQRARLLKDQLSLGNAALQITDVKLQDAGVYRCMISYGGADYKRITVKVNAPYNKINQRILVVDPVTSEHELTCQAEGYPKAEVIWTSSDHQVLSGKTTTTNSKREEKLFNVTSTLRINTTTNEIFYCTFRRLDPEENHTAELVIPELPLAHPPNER
T5 sequence (Q9NZQ7 19-290): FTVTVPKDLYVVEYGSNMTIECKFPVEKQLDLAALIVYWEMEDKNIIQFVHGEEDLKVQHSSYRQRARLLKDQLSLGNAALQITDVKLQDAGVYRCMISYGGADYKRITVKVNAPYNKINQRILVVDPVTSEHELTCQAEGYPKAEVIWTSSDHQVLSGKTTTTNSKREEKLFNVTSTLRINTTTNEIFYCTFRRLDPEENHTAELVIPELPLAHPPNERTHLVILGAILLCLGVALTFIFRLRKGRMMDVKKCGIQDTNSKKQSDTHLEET
T3 sequence (Q9EP73 19-290): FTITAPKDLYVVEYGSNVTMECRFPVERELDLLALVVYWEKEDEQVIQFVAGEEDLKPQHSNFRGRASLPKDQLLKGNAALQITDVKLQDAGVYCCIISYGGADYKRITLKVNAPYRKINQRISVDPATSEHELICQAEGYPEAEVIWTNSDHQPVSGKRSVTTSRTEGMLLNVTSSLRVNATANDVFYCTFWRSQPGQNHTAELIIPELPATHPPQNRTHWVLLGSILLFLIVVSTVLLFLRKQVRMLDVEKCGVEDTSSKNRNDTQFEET
T2 sequence (G7PSE7 entry or part of it limits assumed): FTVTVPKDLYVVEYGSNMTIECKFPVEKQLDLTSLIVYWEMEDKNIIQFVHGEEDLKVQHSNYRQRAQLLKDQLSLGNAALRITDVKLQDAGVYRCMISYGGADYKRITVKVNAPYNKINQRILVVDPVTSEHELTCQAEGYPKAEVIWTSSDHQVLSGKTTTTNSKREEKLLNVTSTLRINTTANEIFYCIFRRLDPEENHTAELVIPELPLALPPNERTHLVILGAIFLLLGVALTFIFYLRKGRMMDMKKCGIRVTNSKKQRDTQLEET
T1 sequence (Q9NZQ7 19-238): as the sequence (Q9NZQ7 19-238) above

binding result [1]: no binding (tested: 100 nM)
B1: WBP325-BMK3.uIgG1 (Bevacizumab) (antibody, V domains shown)
VH: EVQLVESGGGLVQPGGSLRLSCAASGYTFTNYGMNWVRQAPGKGLEWVGWINTYTGEPTYAADFKRRFTFSLDTSKSTAYLQMNSLRAEDTAVYYCAKYPHYYGSSHWYFDVWGQGTLVTVSS
VL: DIQMTQSPSSLSASVGDRVTITCSASQDISNYLNWYQQKPGKAPKVLIYFTSSLHSGVPSRFSGSGSGTDFTLTISSLQPEDFATYYCQQYSTVPWTFGQGTKVEIK
notes: also called W325-BMK3.uIgG1; W325-BMK3

EC50 (read off the curve) [2]: ~2 nM
EC50 (read off the curve) [3]: ~2 nM
Kd [4]: 0.16 nM
koff [4]: 0.000291 s⁻¹
kon [4]: 1.82e+06 M⁻¹ s⁻¹
IC50 (read off the curve) [5]: ~0.04 nM
binding result [6]: no binding (tested: 100 nM)
EC50 (read off the curve) [7]: ~0.05 nM
IC50 (read off the curve) [8]: ~2 nM
B2: W3156-AP3R2-1A3-z12-hIgG1 (Fc fusion)
chain: EVQLVESGGGLVQPGGSLRLSCAASGHFSNLAVNWFRQAPGKERELVAGILWSGGSTFYADSVKGRFTISRGNAENMLYLQMNSLRAEDTAVYYCNTGTNWGQGTLVTVSS
notes: VHH in hIgG1 format as tested; The construction of the hIgG1 format is not described; also called anti-PD-L1 VHH antibody; parental anti-PD-L1 antibody; not shown: human IgG1 part (hIgG1) named in the label only
